Measured values taken from paper PMC3314968, “The UBAP1 Subunit of ESCRT-I Interacts with Ubiquitin via a SOUBA Domain” (Structure(London, England:1993), 2012).

Target: T1, monoubiquitin (SIGMA U6253) (UniProt P0CG48 1-76)
T1 construct: ubiquitin, the 76-residue cut product of a ubiquitin precursor; source: bought: SIGMA U6253
Experiment: ITC; Microcal ITC200; 20 mM Tris-HCl (pH 7.5), 100 mM NaCl, 1 mM TCEP; SOUBA domain at 150 μM in the cell, 38 injections of monoubiquitin at 3 mM; single set of independent sites
Conditions: both partners purified

B1: human UBAP1 SOUBA domain (389-502), wild-type (domain or fragment, UniProt Q9NZ09 389-502, looked up)
chain: SPSERQCVETVVNMGYSYECVLRAMKKKGENIEQILDYLFAHGQLCEKGFDPLLVEEALEMHQCSEEKMMEFLQLMSKFKEMGFELKDIKEVLLLHNNDQDNALEDLMARAGAS
notes: UBAP1, human, residues 389-502 (SOUBA domain); The His6 tag is followed by a TEV protease cleavage site; whether it was cut is told in the Supplemental Experimental Procedures; Used unlabeled or 15N- (13C/15N-) labeled in NMR; also called UBAP1(389-502); UBAP1_389-502; source: recombinant, from the pOPTH(tev) expression vector, purified (details in Supplemental Experimental Procedures)
With B1 as the binder, how does the Kd read?
The Kd was about 70 µM.
